These are literature values, as cited in publication PMC9986639.

In this data set the target is PAPR (Escherichia coli) (UniProt P17854).
Sequence of PAPR (Escherichia coli) (P17854 2-244): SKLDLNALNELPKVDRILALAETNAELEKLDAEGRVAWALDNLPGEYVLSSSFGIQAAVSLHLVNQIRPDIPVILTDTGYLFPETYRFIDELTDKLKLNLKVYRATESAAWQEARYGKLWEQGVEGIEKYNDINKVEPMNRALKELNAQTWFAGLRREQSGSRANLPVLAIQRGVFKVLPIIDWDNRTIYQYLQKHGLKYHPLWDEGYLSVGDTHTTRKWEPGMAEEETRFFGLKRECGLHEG

Sequence of Trx1 (P0AA25 2-109): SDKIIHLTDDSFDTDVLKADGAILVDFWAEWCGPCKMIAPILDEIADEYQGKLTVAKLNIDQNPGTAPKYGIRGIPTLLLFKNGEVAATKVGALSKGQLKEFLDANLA

For the substance Trx1 (from UniProt P0AA25), the Kd is 110 µM.
